B1: Serine hydrolase RBBP9 (Rattus norvegicus (Rat)), O88350 (parent)
chain: MASPTKAVIVPGNGGGDVATHGWYGWVRKGLEQIPGFQCLAKNMPDPITARESIWLPFMETELHCDEKTIIIGHSSGAIAAMRYAETHQVYALILVSAYTSDLGDENERASGYFSRPWQWEKIKANCPHIIQFGSTDDPFLPWKEQQEVADRLDAKLYKFTDRGHFQNTEFHELIRVVKSMLTPAL
partner: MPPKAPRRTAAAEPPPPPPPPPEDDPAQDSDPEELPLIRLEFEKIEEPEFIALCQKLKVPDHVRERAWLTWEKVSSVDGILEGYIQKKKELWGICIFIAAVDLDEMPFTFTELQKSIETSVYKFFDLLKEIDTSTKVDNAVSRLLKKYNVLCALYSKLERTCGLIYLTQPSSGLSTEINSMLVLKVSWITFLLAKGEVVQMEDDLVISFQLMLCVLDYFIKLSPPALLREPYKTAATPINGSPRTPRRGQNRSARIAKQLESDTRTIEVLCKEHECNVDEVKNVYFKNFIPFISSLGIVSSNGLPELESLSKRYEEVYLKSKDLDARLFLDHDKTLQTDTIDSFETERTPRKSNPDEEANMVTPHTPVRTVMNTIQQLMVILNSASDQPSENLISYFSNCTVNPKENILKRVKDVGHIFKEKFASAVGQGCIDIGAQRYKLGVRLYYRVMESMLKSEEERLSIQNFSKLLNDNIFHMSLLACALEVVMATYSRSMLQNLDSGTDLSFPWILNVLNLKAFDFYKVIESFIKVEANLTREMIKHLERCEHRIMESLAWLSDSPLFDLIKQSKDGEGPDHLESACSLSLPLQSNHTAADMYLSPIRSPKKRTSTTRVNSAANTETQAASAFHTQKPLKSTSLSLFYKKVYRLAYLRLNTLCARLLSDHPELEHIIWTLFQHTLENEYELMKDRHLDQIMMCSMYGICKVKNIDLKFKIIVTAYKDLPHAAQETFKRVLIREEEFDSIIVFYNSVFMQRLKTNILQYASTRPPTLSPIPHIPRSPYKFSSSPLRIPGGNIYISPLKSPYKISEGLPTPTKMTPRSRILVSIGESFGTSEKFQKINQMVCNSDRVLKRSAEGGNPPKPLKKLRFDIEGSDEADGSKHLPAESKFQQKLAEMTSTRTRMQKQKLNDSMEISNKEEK

Variants of: B1
Settings: with rb_rat Rb1, P33568

Variant | effect of a mutation on the interaction
L63E | disrupting interaction

Reference: IntAct's records for PubMed 9697699
